Columns and labels:
[1] = target: Human FcγRI (human) (UniProt P12314); assay: SPR (Biacore T200), His-tagged FcγR captured on anti-penta-His chip, antibody injected
[2] = target: Human FcγRIIIa (F176) (human) (UniProt P08637); assay: as above
[3] = target: Human FcγRIIIa (V176) (human) (UniProt P08637); assay: as above
[4] = target: Human FcγRIIIb (human) (UniProt O75015); assay: as above
[5] = target: Human FcγRIIa (H131) (human) (UniProt P12318); assay: as above
[6] = target: Human FcγRIIa (R131) (human) (UniProt P12318); assay: as above
Sequence of Human FcγRIIa (R131) (human) (P12318 36-218 H167R limits assumed): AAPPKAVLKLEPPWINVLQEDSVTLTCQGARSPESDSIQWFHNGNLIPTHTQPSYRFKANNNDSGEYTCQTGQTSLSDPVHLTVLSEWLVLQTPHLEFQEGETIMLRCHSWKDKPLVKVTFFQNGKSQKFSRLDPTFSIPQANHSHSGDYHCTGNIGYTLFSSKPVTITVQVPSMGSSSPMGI

[7] = target: Human FcγRIIb (human) (UniProt P31994); assay: as above
Sequence of Human FcγRIIb (human) (P31994 46-217 limits assumed): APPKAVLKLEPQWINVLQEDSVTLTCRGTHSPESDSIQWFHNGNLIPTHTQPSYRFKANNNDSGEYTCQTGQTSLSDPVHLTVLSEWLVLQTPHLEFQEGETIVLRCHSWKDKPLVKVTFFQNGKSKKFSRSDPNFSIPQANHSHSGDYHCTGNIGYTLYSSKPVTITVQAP

[8] = target: Human FcγRIIa (H131) (human) (UniProt P12318); assay: SPR (Biacore T200), His-tagged FcγR captured on anti-penta-His chip, kinetic or steady-state fit
[9] = target: Human FcγRIIa (R131) (human) (UniProt P12318); assay: as above
[10] = target: Human FcγRIIb (human) (UniProt P31994); assay: as above

Sequence of Human FcγRIIa (H131) (human) (P12318 36-218 limits assumed): as the sequence (P12318 36-218 H167R limits assumed) above, with R132H counted along it
Sequence of Human FcγRIIIa (V176) (human) (P08637 17-208 F176V limits assumed): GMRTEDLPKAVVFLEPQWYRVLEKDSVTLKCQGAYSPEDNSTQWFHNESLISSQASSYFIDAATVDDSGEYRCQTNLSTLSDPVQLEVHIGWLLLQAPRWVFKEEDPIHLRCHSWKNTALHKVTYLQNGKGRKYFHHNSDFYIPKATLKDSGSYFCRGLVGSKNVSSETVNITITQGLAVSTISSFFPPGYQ
Sequence of Human FcγRI (human) (P12314 16-288 limits assumed): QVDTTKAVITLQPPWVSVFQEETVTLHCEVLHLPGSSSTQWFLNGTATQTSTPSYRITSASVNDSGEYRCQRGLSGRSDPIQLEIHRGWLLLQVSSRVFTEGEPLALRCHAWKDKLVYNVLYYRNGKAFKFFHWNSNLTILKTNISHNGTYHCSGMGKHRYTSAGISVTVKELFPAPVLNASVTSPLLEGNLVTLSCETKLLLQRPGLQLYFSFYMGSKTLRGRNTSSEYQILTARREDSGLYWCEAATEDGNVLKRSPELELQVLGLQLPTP
Sequence of Human FcγRIIIb (human) (O75015 17-200 limits assumed): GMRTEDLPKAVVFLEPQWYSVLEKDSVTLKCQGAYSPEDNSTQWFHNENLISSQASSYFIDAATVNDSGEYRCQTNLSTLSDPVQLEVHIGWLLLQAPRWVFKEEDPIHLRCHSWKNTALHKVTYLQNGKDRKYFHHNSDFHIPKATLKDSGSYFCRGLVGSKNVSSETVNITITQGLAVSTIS
Sequence of Human FcγRIIIa (F176) (human) (P08637 17-208 limits assumed): as the sequence (P08637 17-208 F176V limits assumed) above, with V160F counted along it

B1: mAb3 (antibody, part only; not given: variable domains, not shown: another chain or arm of the molecule)
Fc: ESKYGPPCPPCPAPPVAGPSVFLFPPKPKDTLMISRTPEVTCVVVDVSQEDPEVQFNWYVDGVEVHNAKTKPREEQFNSTYRVVSVLTVLHQDWLNGKEYKCKVSNKGLPSSIEKTISKAKGQPREPQVYTLPPSQEEMTKNQVSLTCLVKGFYPSDIAVEWESNGQPENNYKTTPPVLDSDGSFFLYSRLTVDKSRWQEGNVFSCSVMHEALHNHYTQKSLSLSLGK
In the case of B1, the binding signal (RU) [1] is reported as 36 RU, the binding signal (RU) [2] is reported as 6 RU and the binding signal (RU) [3] is reported as 34 RU. It also gave a binding signal (RU) [4] of -8 RU, a binding signal (RU) [5] of 419 RU and a binding signal (RU) [6] of 340 RU. For the same binder, the binding signal (RU) [7] was 226 RU, the Kd [8] was 1610 nM and the Kd [9] was 1320 nM. The Kd [10] was 12300 nM.

Reference: US20220372168A1
